T1: rat IL-23R extracellular domain (ECD) protein (rat)
T1 construct: also called rat IL-23R ECD; F1LX96 amino acids 24-354
T1 chain: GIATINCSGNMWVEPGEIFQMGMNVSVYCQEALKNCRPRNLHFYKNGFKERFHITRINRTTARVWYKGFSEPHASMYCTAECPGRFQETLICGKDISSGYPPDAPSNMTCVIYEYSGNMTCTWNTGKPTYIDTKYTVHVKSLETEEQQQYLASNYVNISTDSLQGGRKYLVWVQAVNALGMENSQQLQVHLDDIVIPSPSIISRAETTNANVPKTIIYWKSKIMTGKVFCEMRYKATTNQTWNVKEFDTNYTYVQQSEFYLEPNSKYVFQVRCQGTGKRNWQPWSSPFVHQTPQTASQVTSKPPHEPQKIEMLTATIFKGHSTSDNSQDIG

T2: Recombinant human IL-23 receptor (IL-23R) extracellular domain (ECD) protein (human, UniProt Q5VWK5 24-355)
T2 construct: also called human IL-23R ECD; hu IL-23R ECD
T2 sequence: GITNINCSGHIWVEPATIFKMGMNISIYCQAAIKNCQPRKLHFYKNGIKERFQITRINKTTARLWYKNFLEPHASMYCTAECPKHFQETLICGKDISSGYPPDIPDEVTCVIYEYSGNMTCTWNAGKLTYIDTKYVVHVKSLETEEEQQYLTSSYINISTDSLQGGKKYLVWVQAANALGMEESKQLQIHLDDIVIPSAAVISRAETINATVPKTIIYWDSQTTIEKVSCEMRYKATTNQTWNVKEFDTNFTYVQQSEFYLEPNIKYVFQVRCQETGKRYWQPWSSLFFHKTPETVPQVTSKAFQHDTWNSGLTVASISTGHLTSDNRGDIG


What was measured:
[1] = biological target: T1, rat IL-23R extracellular domain (ECD) …; assay: SPR Biacore 8K, supernatant
Method in brief: (§1)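 Kinetics fitted to a 1:1 Langmuir model gave on-rate, off-rate and KD. Human or rat IL-23R ECD flowed over captured mAbs (~150 RU) at 0.8–500 nM, 5-fold dilutions: 3 min binding at 50 μL/min, then 30 min buffer, 25 °C, HBS-P+ plus 100 μg/ml BSA.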

[2] = biological target: T2, Recombinant human IL-23 receptor …; assay: SPR Biacore 8K, supernatant, analysis 1
Method in brief: as §1

[3] = biological target: T2, Recombinant human IL-23 receptor …; assay: SPR Biacore 8K, supernatant, analysis 2
Method in brief: as §1

Binder | binding result [1] | Kd [2] [nM] | koff [2] [s⁻¹] | kon [2] [M⁻¹ s⁻¹] | Kd [3] [nM] | koff [3] [s⁻¹] | kon [3] [M⁻¹ s⁻¹] | Kd [1] [nM] | koff [1] [s⁻¹] | kon [1] [M⁻¹ s⁻¹]
I23RB169 (antibody, mouse IgG2a, kappa, V domains shown, mouse immunization; mouse IgG2a/kappa) VH: QIQLVQSGPELKKPGETVKISCKASGYTFTTVGMQWVQKMPGKGFKWIGWINTHSGEPKYTDDFKGRFAFSLETSASTAYLQISNLKSEDTATYFCARSSALTGAFAYWGQGTLVTVSS VL: DIKMTQSPASLAVSLGQRATISCRASKSVSTSDYSYMHWYQQKPGQPPKLLIYLASNLESGVPARFSGSGSGTDFTLNIHPVEEEDAATYYCQHSRELPRTFGAGTKLELKR | no binding (tested: 500 nM) | 91.3 | 0.0116 | 128000 | 34.8 | 0.00427 | 123000 |  |  | 
I23RB30 (antibody, mouse IgG2a, kappa, V domains shown, mouse immunization; mouse IgG2a/kappa) VH: not shown VL: DIVLTQSQRFMSTSVGDRVSITCKASQNIRTAVAWYQQKPGQSPKALIYLPSNRHTGVPDRFTGSGSGTDFTLTISNVQSEDLADYFCLQHWNYPLTFGAGTKLELKR |  | 46.2 | 0.0101 | 220000 | 35.9 | 0.00763 | 212000 | 306 | 0.00909 | 29800
I23RB27 (antibody, mouse IgG2a, kappa, V domains shown, mouse immunization; mouse IgG2a/kappa) VH: QVQLKESGPDLVQPSQTLSLTCTVSGFSLTSYGVHWVRQPPGKGLEWVGTLGWDDKKSYNSALKSRLSISRDTSKSQVFLKLSSLQTEDTAMYYCTKEDVSYAMDFWGQGTTLTVSS VL: DIQMTQSPTSLAVSLGQRATISCRASESVEYYGTSLMHWYQQKPGQPPKLLIYAASNVESGVPARFSGSGSGTDFSLNIHPVEEEDIAMYFCQQGKKVPWTFGAGTKLEMKR | no binding (tested: 500 nM) | 11.4 | 0.00372 | 325000 | 18.7 | 0.00416 | 223000 |  |  | 
I23RB153 (antibody, mouse IgG2a, kappa, V domains shown, mouse immunization; mouse IgG2a/kappa) VH: EVKLVESGGGLVQPGGSLKLSCAASGFTFSSDTMSWVRQTPEKRLELVAEISSNGGSTYHIDTVKGRFTISRDNAKNTLYLQMSSLKSEDTAMYYCASPGYPWFAYWGQGTTVTVSA VL: DIVMTQSHRFMSTSVGERVSITCKASQDVGNAVAWYQQKPGQSPKLLIYWTSTRHNGVPDRFTGSGSGTDFTLTISNVQGEDLADYFCQQYNRYPLTFGSGTKLEIKR |  | 1.64 | 0.000226 | 138000 | 2.33 | 0.000318 | 137000 | 92.1 | 0.00548 | 59500
I23RB36 (antibody, mouse IgG2a, kappa, V domains shown, mouse immunization; mouse IgG2a/kappa) VH: QIQLVQSGAELVKPGASVKLSCTTSGFNIKDTYIHWMKQRPEQGLEWIGRIDPANGNTIYASKFQGKATLTTDTSSNTAYMLLSSLTSGDTAVYYCTRGTSWFAYWGQGTTVTVSS VL: DIVMTQSPKSMSMSVGERVTLSCKASENVGTSVSWFQQKPEQSPKLLIYGASNRYTGVPDRFTGSGSATDFTLTISSVQAEDLADYHCGQSYSYPRTFGGGTKLEIKR | no binding (tested: 500 nM) | 13.7 | 0.00118 | 86400 | 2.18 | 0.00129 | 592000 |  |  | 
I23RB162 (antibody, mouse IgG2a, kappa, V domains shown, mouse immunization; mouse IgG2a/kappa) VH: EFQLQQSGPELVKPGASVKMSCKASGYTFTNYVMHWVKQKPGQGLEWIGYINPYNDGTKYNEKFKGKATLTSDKSSSTAYMELSSLTSEDSAVYYCARSRTGTRWYFDVWGAGTTVTVSS VL: DIVMTQSQKFMSTSVGDRVSVTCKASQNVGTNVAWYQQKPGQSPKALIYSASYRYSGVPDRFTGSGSGTDFTLTISNVQSEDLAEYFCQQYNSYPFTFGSGTKLEIKR | no binding (tested: 500 nM) | 44.6 | 0.0237 | 531000 | 62.2 | 0.0216 | 347000 |  |  | 
I23RB39 (antibody, mouse IgG2a, kappa, V domains shown, mouse immunization; mouse IgG2a/kappa) VH: EVQLQQSGPELVKPGAPVKISCKASGYTFTNYYIHWVKQRPGQGLEWIGYIYPGNGGTAYNQKFKDKATLTADNPSSTAYMQLSSLTSEDSAVYFCARSRGGSRNYFDYWGQGTTLTVSS VL: DIQMTQSHKFMSTSVGDRVSITCKASQDVSTAVAWYQQKPGQSPKLLIYSAFYRYTGVPDRFTGSGSGTDFTFTISSVQAEDLAVYYCQQHYSSPRTFGAGTKLELKR | no binding (tested: 500 nM) | 32 | 0.00739 | 231000 | 14.9 | 0.00716 | 482000 |  |  | 
I23RB166 (antibody, mouse IgG2a, kappa, V domains shown, mouse immunization; mouse IgG2a/kappa) VH: DVQLQESGPGLVKPSQTVSLTCTVTGYSITNGNHWWNWIRQVSGSKLEWIGYIRSSGSTDSNPSLKSRISITRDTSKNQLFLQLNSVTAEDIATYYCARERLRLRWSYFDYWGQGTTLTVSS VL: DIVMTQSHKFMSTSVGARVSITCKASQDVSTAVAWYQQKPGQSPKLLIYSASYRYTGVPDRFTGSGSGTDFTFTISSVQAEDLAVYYCQQHYSTPRTFGGGTKLEIKR | no binding (tested: 500 nM) | 43.1 | 0.0193 | 447000 | 44.1 | 0.00942 | 214000 |  |  | 
I23RB156 (antibody, mouse IgG2a, kappa, V domains shown, mouse immunization; mouse IgG2a/kappa) VH: QVQLKESGPGLVAPSQSLSITCTVSGFSLTSYAINWVRQPPGKGLEWLGVIWTGGGTNYNSVFKSRLSISKDNSKSQIFLKMISLQTDDTARYYCARNRDYSNYRWYFDVWGAGTTLTVSS VL: DIVMTQSHKFMSTSVGDRVSITCKASQDVSTAVAWYQQKPGRSPKLLIYSAFYRYTGVPDRFTGSGSGTDFTFTIGSVQAEDLAVYYCQQHYSIPLTFGAGTKLELKR | no binding (tested: 500 nM) | 0.403 | 0.000218 | 542000 | 0.588 | 0.000259 | 441000 |  |  | 
I23RB160 (antibody, mouse IgG2a, kappa, V domains shown, mouse immunization; mouse IgG2a/kappa) VH: QVQLKESGPDLVKPSQSLSLTCTVTGYSITSGYNWHWIRQFPGNKLEWMGYIHYSSGTIYNPSLKSRISITRDTSKNQFFLQLNSVTTEDTGTYYCARQLGLKAMDYWGQGTSVTVSS VL: DIVMTQSHKFMSTSVGDRVSITCKASQDVRTAVAWYQQKPGQSPKLLIHSASYRYTGVPDRFTGSGSGTDFTFTISSVQVEDLAVYYCQQHYTTPYTFGSGTKLEIKR | no binding (tested: 500 nM) | 16.9 | 0.00955 | 567000 | 13.8 | 0.0142 | 1.02e+06 |  |  | 
I23RB188 (antibody, mouse IgG2a, kappa, V domains shown, mouse immunization; mouse IgG2a/kappa) VH: QIQLVQSGPELKKPGETVKISCKASGYTFTNYGMNWVKQAPGKGLKWMGWINTYTGAPTYADDFKGRFAFSLETSASTAYLQINNFKNEDTATYFCARGNGYPYYYGINYWGQGTSVTVSS VL: DVQMIQSPSSLSASLGERVSLTCRASQEISGNLSWLQQKPDGTIKRLIYAASTLDSGVPKRFSGSRSGSDYSLTISSLESEDFADYYCLQYASYPWTFGAGTRLEIKR | no binding (tested: 500 nM) | 13.3 | 0.0013 | 98200 | 18.9 | 0.00151 | 79800 |  |  | 
I23RB182 (antibody, mouse IgG2a, kappa, V domains shown, mouse immunization; mouse IgG2a/kappa) VH: EVQLQQSGPGLVKPSQSLSLTCSVTGYSITSGYFWNWLRQFPGSKLEWMGFIDNDGSNDYNPSLKNRISITRDTSKNQFFLRLNSVTTEDTATYYCARGRLGFFDSWGPGTTLTVSS VL: DIVMTQSPAIMSASLGEKVTMSCRASSSVNYMYWYQQKSDASPKLWIYYTSNLAPGVPARFSGSGSGNSYSLTISSMEGEDAATYYCQQFTNSPWTFGAGTKLELKR | no binding (tested: 500 nM) | 49.8 | 0.00194 | 38900 | 43.7 | 0.00394 | 90200 |  |  | 
I23RB168 (antibody, mouse IgG2a, kappa, V domains shown, mouse immunization; mouse IgG2a/kappa) VH: QIQLVQSGPELVKPGASVKMSCKTSGYTFTDYYINWVKQRPGQGLEWIGWIYPAINNTNYNEKFKGKATLTVDTSSRTAYMQLNSLTSEDSAVYFCAISRKPYFDYWGQGTTLTVSS VL: DIQMTQSSSSFSVSLGDRVTITCKASEDLYNRLAWYQQKPGNAPRLLISGATSLGTGVLSRFSGSGSGKDYTLSITSLQTEDVATYYCQQYWSIPWTFGAGTKLELKR | no binding (tested: 500 nM) | 0.279 | 0.000118 | 424000 | 0.422 | 0.000155 | 368000 |  |  | 
I23RB155 (antibody, mouse IgG2a, kappa, V domains shown, mouse immunization; mouse IgG2a/kappa) VH: QVQLKESGPGLVKPSQSLSLTCSVTGYSITSGHSWNWIRQFPGNKLEWMGYISYDGTNDYNPSLKNRISITRDTSKNQFFLNLNSVTTEDTVTYYCARGGGYYGGTYRVFADWGQGTTLTVSS VL: QIVLSQSPASLAVSLGQRATISCRTSESVDTYGNSFIYWYQQKPGQPPKLLIYRASNLESGIPARFSGSGSRTDFTLTINPVEADDVATYYCQQGNKDPYTFGSGTKLEMKR | no binding (tested: 500 nM) | < 0.0784 | < 2.89e-05 | 369000 | < 0.121 | < 2.89e-05 | 239000 |  |  | 

Reference: patent US20250179196A1 (Janssen / Centocor, published 2025)
